# Reference: US20260258143A1 (published 2026)
# Like-named read-outs stand apart in the source and are kept apart here.
# T1: human CD25-extracellular domain (CD25-ECD) (UniProt P01589 22-240)
# T1 chain: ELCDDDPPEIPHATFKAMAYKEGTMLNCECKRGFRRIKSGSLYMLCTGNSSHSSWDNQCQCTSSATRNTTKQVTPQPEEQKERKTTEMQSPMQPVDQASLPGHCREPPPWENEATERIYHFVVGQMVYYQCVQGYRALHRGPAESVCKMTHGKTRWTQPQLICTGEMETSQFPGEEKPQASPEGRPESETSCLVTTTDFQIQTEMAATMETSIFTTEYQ
# Legend:
# Experiment in all cases: SPR
# [1] = biological target: T1, human CD25-extracellular domain …
# cynomolgus CD25 [2] = biological target: cynomolgus CD25
# [3] = biological target: T1, human CD25-extracellular domain …
# [4] = biological target: T1, human CD25-extracellular domain …
# cynomolgus CD25 [5] = biological target: cynomolgus CD25; remark: listed apart in the source
# [6] = biological target: T1, human CD25-extracellular domain …
# 83B05Hu1_A = biological target: 83B05Hu1_A
# [7] = biological target: T1, human CD25-extracellular domain …
# cCD25 = biological target: cCD25
# cynomolgus CD25 [8] = biological target: cynomolgus CD25; remark: listed apart in the source
# cynomolgus CD25 [9] = biological target: cynomolgus CD25; remark: listed apart in the source
# [10] = biological target: T1, human CD25-extracellular domain …
# [11] = biological target: T1, human CD25-extracellular domain …
# [12] = biological target: T1, human CD25-extracellular domain …
# cynomolgus CD25 [13] = biological target: cynomolgus CD25; remark: listed apart in the source
# [14] = biological target: T1, human CD25-extracellular domain …
# [15] = biological target: T1, human CD25-extracellular domain …
binder,measurement,setting,value
ODY-83B03Hu1 (VHH) VHH: EVQLVESGGGLVQPGGSLRLSCAASGMPLVAMGWYRQAPGKQRELVASISSGGNTGYADSVKGRFTISRDNAKKTVYLQMNSVRPEDTGVYYCNIYRSQVPPTRYSWGQGTQVTVSS,Kd,[1],21 nM
same,Kd,cynomolgus CD25 [2],112 nM
humanized anti-CD25 V-body 46A3 (VHH) VHH: EVQLLESGGGLAQPGGSLRLSCAASGFTFSNYAMSWARQAPGKGLEWVSGIYSDGSGTYYADSVKGRFTISRDNAKNTVYLQMNSLRPEDTAVYYCAKGRNSGSYYPWDDYWGQGTQVTVSS,Kd,[3],49 nM
same,Kd,[4],49 nM
ODY-46A3 (VHH) VHH: EVQLLESGGGLAQPGGSLRLSCAASGFTFSNYAMSWARQAPGKGLEWVSGIYSDGSGTYYADSVKGRFTISRDNAKNTVYLQMNSLRPEDTAVYYCAKGRNSGSYYPWDDYWGQGTQVTVSS,Kd,cynomolgus CD25 [5],34 nM
"ODY-N1813Hu1 (antibody, V domains shown) VH: EVQLLESGGGLAQPGGSLRLSCAASGFTFSNYAMSWARQAPGKGLEWVSGIYSDSSGTYYADSVKGRFTISRDNAKNTVYLQMNSLRPEDTAVYYCAKGRGSGSYYPFEDYWGQGTQVTVSS",Kd,[6],50 nM
human CD25 (receptor) ELCDDDPPEIPHATFKAMAYKEGTMLNCECKRGFRRIKSGSLYMLCTGNSSHSSWDNQCQCTSSATRNTTKQVTPQPEEQKERKTTEMQSPMQPVDQASLPGHCREPPPWENEATERIYHFVVGQMVYYQCVQGYRALHRGPAESVCKMTHGKTRWTQPQLICTGEMETSQFPGEEKPQASPEGRPESETSCLVTTTDFQIQTEMAATMETSIFTTEYQ,Kd,83B05Hu1_A,76 nM
humanized anti-CD25 V-body 47D3 (VHH) VHH: EVQLLESGGGLVQPGGSLRVSCAASGRTFSWNGMGWFRQAPGKEREFVAAISQSGGRTRYADSVKGRFTISRDNAKNTVYLQMNSLRPEDTAVYYCAASDFLLATTISAYDYWGQGTQVTVSS,Kd,[7],1.6 nM
same,Kd,[4],1.6 nM
47D3 (VHH) VHH: EVQLLESGGGLVQPGGSLRVSCAASGRTFSWNGMGWFRQAPGKEREFVAAISQSGGRTRYADSVKGRFTISRDNAKNTVYLQMNSLRPEDTAVYYCAASDFLLATTISAYDYWGQGTQVTVSS,Kd,cCD25,49 nM
same,Kd,cynomolgus CD25 [8],49 nM
ODY-83B05Hu1 (VHH) VHH: EVQLLESGGGLVQPGGSLRLSCAASGFTLDYYAIGWFRQAPGKEREGVLSISSTDGRTYYADSVKGRFTISRDNPKNTVYLQLNSLRPEDTAVYYCAAKRLGPMVHRYSLEVLTPLFLDEYDYWGQGTQVTVSS,Kd,cynomolgus CD25 [9],97 nM
same,Kd,[10],35 nM
"83B05Hu1_L (antibody, V domains shown) VH: EVQLLESGGGLVQPGGSLRLSCAASGFTLDYYAIGWFRQAPGKEREGVLSISSTDGRTYYADSVKGRFTISRDNPKNTVYLQLNSLRPEDTAVYYCAAKRLGPLVHRYSLEVLTPLFLDEYDYWGQGTQVTVSS",Kd,[11],61 nM
ODY-83F07Hu1 (VHH) VHH: EVQLLESGGGLVQPGGSLRLSCAASGFTLDYYAIGWFRQAPGKEREGVLSISSTDGRTYYADSVKGRFTISRDNPKNTVYLQLNSLRPEDTAVYYCAAKRLGPMVHQYSLEVLTPLFLDEYDYWGQGTQVTVSS,Kd,[12],58 nM
same,Kd,cynomolgus CD25 [13],97 nM
"83F07Hu1_L (antibody, V domains shown) VH: EVQLLESGGGLVQPGGSLRLSCAASGFTLDYYAIGWFRQAPGKEREGVLSISSTDGRTYYADSVKGRFTISRDNPKNTVYLQLNSLRPEDTAVYYCAAKRLGPLVHQYSLEVLTPLFLDEYDYWGQGTQVTVSS",Kd,[14],97 nM
"ODY-N2002Hu1 (antibody, V domains shown) VH: EVQLVESGGGLVQPGGSLRLSCAVSGRSFSTLIMAWYRQAPGKQRELVATIDRGGTTTYADSVKGRFTISRDNAKNTVYLQMNSLRPEDTAVYYCKTLRYWGQGTQVTVSS",Kd,[15],17 nM
